Results: patent US12312398B2, “Compositions and methods for targeting activin signaling to treat cancer” (The Johns Hopkins University, priority 2016, dated 2025)

Key:
[1] = system: naïve CD4+ T cells; experiment: In vitro Treg differentiation, intracellular Foxp3 by flow cytometry; assay type: cell-based, mice
Procedure: Naïve CD4+ T cells from Yap1f/f,Foxp3-yfpCre+ (KO) and Yap1 wt/wt,Foxp3ypfCre+ (WT) mice were stimulated with anti-CD3/CD28 antibodies (1 and 4 ug/ml, respectively) for 3 days in the presence of IL-2 (100 U/ml) and the indicated doses of TGFβ and exogenous Activin A. A low dose of TGF-beta and/or activin was also administered to the indicated samples (activin was dosed at 50 ng/ml on day 0 and day 2 of culture). Treg induction (via detection of intracellular Foxp3 up-regulation) was determined by flow cytometry.
To explore the involvement of Activin/ACVR1C signaling in the driving of Treg differentiation by YAP, the effects of supplemental Activin on in vitro Treg commitment was also investigated. Activation of wild type naïve CD4+ T cells without TGFI3 yielded little-to-no Foxp3 induction.
Naïve CD4+ T cells (CD4+ CD25− CD62LHi) were sorted on a FACS Aria high speed sorter. The sorted cells were activated with plate-bound aCD3 (10 ug/ml) and soluble aCD28 (2ug/ml) in a 24-well plate with the following polarizing conditions: Th1 (IL-12 (10 ng/ml), aIL-4 (10 ug/ml)), Th2 (IL-4 (10 ng/ml), aIFN-g(10 ug/ml), aIL-12 (10 ug/ml)), Th17 (IL-6 (10 ng/ml), TGF-b1 (1.25 ng/ml), IL-23 (10 ng/ml), IL-1b(10 ng/ml), aIFN-g (10 ug/ml), aIL-4 (10 ug/ml), Treg (TGFb1 (5 ng/ml), IL-2 (100IU/ml).
For extracellular staining, harvested cells were washed and incubated in PBS containing 1% FBS containing the below fluorochrome-conjugated antibodies in a U-bottom 96-well plate. For intracellular cytokine staining, harvested cells were re-stimulated in PMA and Ionomycin in the presence of Golg-Plug (BD Biosciences). After 5 hour incubation, the cells were fixed/permeablized (eBioscience) and incubated with antibodies. IFN-g PE, IFN-g APC, IL-13 PE, IL-17 APC (BD Bioscience), IL-2 APC (BD Pharmingen), Foxp3 PE (eBioscience). For cellular proliferation, Cell Trace CFSE cell proliferation kit (Invitrogen) was used per manufacture's manual.

[2] = system: SMAD; experiment: SMAD phosphorylation by western blot in CD4+ T cells; assay type: cell-based, mice; settings: CD4+CD25− T cells, anti-CD3/anti-CD28 24 hrs, then 12 hours treatment; Activin 5 or 10 ng/ml; TGF-β 0.5 or 2 ng/ml; versus untreated
Procedure: Cells were harvested and subjected to SDS-PAGE and Western blot with the indicated antibodies.
Since Activin has been reported to promote SMAD signaling in non-T cells (Schmierer, B., et al., J Biol Chem, 2003. 278:21197-203), whether Activin signaling in T cells could have a similar effect was examined SMAD activity was assessed by western blot analysis of SMAD phosphorylation.

Row | Molecule | Foxp3+ T cell induction (Treg induction) ([1]; wild type naïve CD4+ T cells, anti-CD3/CD28, IL-2 (100 U/ml), 3 days, activin 50 ng/ml on day 0 and day 2, low (suboptimal) dose TGF-β) | SMAD phosphorylation (phospho-SMAD) [2] | Foxp3+ T cell induction (Treg induction) ([1]; Foxp3-driven YAP knockout (Foxp3Cre+/Yap1f/f) naïve CD4+ T cells, anti-CD3/CD28, IL-2, 3 days) | Foxp3+ T cell induction (Treg induction) ([1]; wild type naïve CD4+ T cells, anti-CD3/CD28, IL-2 (100 U/ml), 3 days, activin 50 ng/ml on day 0 and day 2, low (suboptimal) dose TGF-β, listed as Activin A)
1 | TGF-β: anti-inflammatory cytokine TGF-β, inducer of Foxp3 expression | modest up-regulation of Foxp3 | induced SMAD phosphorylation | – | –
2 | Activin: Activin (or Activin A), a dimeric member of the TGF-β Superfamily, added exogenously to T cells (protein, UniProt P08476 311-426, looked up, Inhibin beta A chain homodimer) Inhibin beta A chain: GLECDGKVNICCKKQFFVSFKDIGWNDWIIAPSGYHANYCEGECPSHIAGTSGSSLSFHSTVINHYRMRGHSPFANLKSCCVPTKLRPMSMLYYDDGQNIIKKDIQNMIVEECGCS | – | elevation of phospho-SMAD | not seen | generated a population of Foxp3+ cells
